The data set is described as follows: label from the status in PepcDB records.
Regarding “MKLICYILLILLIPAIPVGAQTLSGGQVQVSNQSILISDNGQVMIGMDITLPAAMELSSNCVATLTPVLKTQDNSYNRILPAIWVYGRIRSIVQQRERSIPSDAYTILRRKNGTEQTVNYSARIPYEKWMNGAELELQAAIRGCADCQKEENSAFITRANLERYVVKPVVAFVSPAVEAVKNRAEEGRAYLDFPVNQMNIYPDYRRNPSELAAIKHTVDVVKNDVNTTITEIAIVGYASPEGRYAANARLAQGRAEALKSYVMNEYGFKADLFKVNSVPEDWAGLRAYVAKNDLPLKEEILSIIDKNESDFDVKEERIKALDGGKVYAALLQDCYPALRHSDYTVRYVVRGFDVEEAKQIIKLRPQQLSLQEMFLVAQTYEKGSDEFNEVFDVAVRMFPDDPTANINAAAIELQRGDLQQAVRYLDKADAQASATLNNRGVLKLLQGDLDSAENYFKQAQAKDSVEAGANLEEVTNKRKDEAIFVK”, the protein production entry is “failed”.
For “MKLIDLHVHSYHSDGVLAPAVLVAMAAERGLASLAIADHDAVDGIDEAVAEGVRLGVDVIPAVELSVELGRFSDLHILGYCIDHHDPAFRDKLAGFRSARDNRGKAILEKINRRLLHSRKAPLSYDEVLSMAGGAVGRPHIGRVLVDNGYARDMEDAFRRYLIPCNVPKRYMPAGEAIAEIRRIGGVSVLAHPPTITDDRRRLRQVVEQLAQLGLDGLEVFNNLCFKDDMLYLERLAEEFGLLMTGGSDFHGFEDDVELGRGRGGLAVAHSLAEKVKELAAQRKHSHA”, the protein production entry is “failed”.
For “MKLINKSIPSIRLSEFISEIEDCLAATFYGDTFWITTEISDVNKKPDKRWCYLKLIEKEGKNVTAEIGAVFWTPGYAYIEKFEKETKQLFKDGLEITCRVKVTFHKRWGLKLEIVEIDYAYTLGKLEAERQETLDRLVKENPDYVRLVGEQYYTFNKSLPLPAVVQRIALITAPESDGQRDFRQELGNNPYGYAFHVDEFVTQIQGDKAHEFIIGKLLLIEAQKEKYDVVAIVRGGGSQLDLKAFDAYDLAQRIASFPVPILTGIGHDRNTSIADLMARQEKTPTKVANVIIQRNFQFEQTVLILKERMVHTVDGLFTNAKNNLKEIKRFVKASNPLTILKKGFAIVKQDNVIITDPSAIDVGTEIQIQFDKETVQSTVTKKKKNGK”, the protein production entry is “failed”.
For “MKLINTTWTHQELVNNQLDNTDAFLVETYSAGNTDVVFTQAPKHYELLISNKHRAVKDNELEVIREFFLKRKIDKDIVLMDKLRTVHTDKLIEISFPTTV”, the protein production result was “not failed”.
Consider “MKLKNEQQQSWLSLAFVWAGAMISVPGLIIGGTLVAGMPLWEALLTGFIGYGIIVILMILQGIQSSDLQEPSVKVASQVFGIQGSQKIISIILAIACLGWFGLQANVSGGAFTNFLKIYGIDLPVSLSSLIWGIIMLISALYGIKILKILNYFAVPVLVLVCLYGLVASLRNNGWAAVSQYTPQTAGSFMSGLSMTVGSFALGAVIAGDYSQYVSSRKDVVKAATLGILPTGLLMIGVGAVLTIASNTADITEVFMNLGFPVLGIIALILATWTTNAVNAFSGGLALINVFDIPKEKEKVAVGAAGAIGTLLAVVGILNYFTPIMSVLSAMVPPVAGVMIAAYWLINKGDRTKWQPTPGVNKLGVFSWLIGAAVGGIPVIMSFFPNAPQLPNQPLIGIVLSFVIYYFGAKRQQTNTESLEME”, for which the protein production entry is given as “failed”.
For the sequence “MKLKNPLDMHLHLRDNQMLELIAPLSARDFCAAVIMPNLIPPLCNLEDLKAYKMRILKACKDENFTPLMTLFFKNYDEKFLYSAKDEIFGIKLYPAGITTNSNGGVSSFDIEYLKPTLEAMSDLNIPLLVHGETNDFVMDRESNFAKIYEKLAKHFPRLKIVMEHITTKTLCELLKDYENLYATITLHHLIITLDDVIGGKMNPHLFCKPIAKRYEDKEALCELAFSGYEKVMFGSDSAPHPKDTKECCGCAAGVFSAPVILPVLAELFKQNSSEENLQKFLSDNTCKIYDLKFKEDKILTLEEKEWQVPNVYEDKYNQVVPYMAGEILKFQLKH”, the protein production entry is on record as “not failed”.
As to “MKLLLLLIIALEISFTTIVSLNVALIILALIYLLGHRTRLRTLGWLLLIPLLPAIGLWSTQYINGSGDKTLMAWVLFTRIYAFVFTGATFTLTTDVLQLTDSLEQNWHLPAKFAYGVLAAYNLVPRIQHEVQVIRAAGLMRGQVLSFWSPQLYFKAILVSINWSQNLARAMRSHGFVEDAPRTHYRQIPLTKLDWTIVISGVLLLQVGAFVIPWR”, the protein production entry was “failed”.
As for “MKLMQIRKPLLKSSLLDQNLTEEEVNMKFVQDLLNWVDEMQVQLDRTEWGSDLPSVESHLENHKNVHRAIEEFESSLKEAKISEIQMTAPLKLSYTDKLHRLESQYAKLLNTSRNQERHLDTLHNFVTRATNELIWLNEKEESEVAYDWSERNSSVARKKSYHAELMRELEQKEESIKAVQEIAEQLLLENHPARLTIEAYRAAMQTQWSWILQLCQCVEQHIQE”, the protein production result is on record as “not failed”.
To “MKLNIKISDKLKLFFKIAFVSVVILFIVREFTSVFKNFNSEYFFMYRNKLDFLNLLIIAALGIISYIPLSFYDFILKRKVGIRLKNRKLYKYSWIASSIASLLGFGGATSLAFKQYFYGDYVDDKKKLLKEIGKIVALNLTGLSIVCCTYMGIRISSWNNLGIIKYAIGIIALYAPGFIIYSAYKYSKTKDKLEFFSTLGIIFISFLEWLTTIILIYATLRITGASISVLTFLPIYIEAAVVGMISMIPGGIGTFDLTFMTGLEVLGIPIEQTLLVIILYRISYYIVPALIGVLLFVHDFGGKINKKFNGLPYEIVSKVAYKIVVSLVFISGAIIVLSNIAPQYLLKIKLLKEILGKQVLGLSIGMSVVLGFLIMLAALMLKYRAKSIYKASMVLFILGIILSLTKGINPYELVFLIIVAYLLYLSKRMFYRDSFVVSCKNTLIDSGILIASFSIYFFILITFGTHLKYVGIVRKMPYKMAYKFGFIAFALVTVIYVAIYFLNIRRKIPVKTFDQCSEYVEKIIEEYKGDSLTHLVFLKDKYIYLNEDKDLFIQYEVYGDKLFVLGNPVGNNENLFREIEKFCEYADNYGYTPVFYQVNDEMISYLHSNGYDFMKIGEEAKVDVKEFKVVGNKMKSLKTSRSKVTKEGYTFHMVEPPFSKEFLDSLREISDEWLDGRKEKGFSVGFFDEDYLNKAPIAILKDREGEIKAFANIMYMYDNESFSVDLMRFSKNTPRGVMDFMFINLIEYGKENGYEIFNMGMAPLANVGLSKYAFWNEKLALQFYENGQALYSFKGLRRFKEKFSHNWEYKYIAYRRNTSILITVIQAAIVCSRNRNVDESIVVRNLKSLIK” belongs “failed”; to “MKLPLHKILKNGATVELDYIKPQEYEDVRRLLNVVIDEGQTYPQKQPLSQQEFAAYWLSQDAFVIRLSGEDGTQKPQTILGSFYIKPNFPGRCSHICNAGFIVQPGLRGQGIGKFMGESMLLVAAQLGYEAVMFNLVFETNIPSITLWQSLGFDIIGSVPDAAKLADGKVVKALIMYRALGV”, “not failed”.
To “MKLPLIMLTALIALTACTSSSTGRKQVMLFSDAELDKMGAASFEDMKKKTPISTDKATNDFVQCVAKSITKNVAKSVHQGDWEVVVFDSAQVNAFALPSGKIGVYTGILNVTENQDQLGAIIGHEVGHVIEHHSNERLSANKLQNMGMAAATAAVGLSDVENKGLWMAGLGLGLQYGVIMPYSRAHESEADIVGQDLMARSGFEPSASIKLWQNMAKLSKGAPAEFMSTHPSNKTRINQLTEHLPSAMTLYKTDSRPNCQKPKVIPSPKA” belongs “failed”; to “MKLRYLNILKEKLGREPTFVELQAFSVMWSEHCGYSHTKKYIRRLPKTGFEGNAGVVNLDDYYSVAFKIESHNHPSAIEPYNGAATGVGGIIRDVLAMGARPTAIFDSLHMSRIIDGIIEGIADYGNSIGVPTVGGELRISSLYAHNPLVNVLAAGVVRNDMLVDSKASRPGQVIVIFGGATGRDGIHGASFASEDLTGDKATKLSIQVGDPFAEKMLIEAFLEMVEEGLVEGAQDLGAGGVLSATSELVAKGNLGAIVHLDRVPLREPDMEPWEILISESQERMAVVTSPQKASRILEIARKHLLFGDVVAEVIEEPVYRVMYRNDLVMEVPVQLLANAPEEDIVEYTPGKIPEFKRVEFEEVNAREVFEQYDHMVGTDTVVPPGFGAAVMRIKRDGGYSLVTHSRADLALQDTYWGTLIAVLESVRKTLSVGAEPLAITNCVNYGDPDVDPVGLSAMMTALKNACEFSGVPVASGNASLYNTYQGKPIPPTLVVGMLGKVNPQKVAKPKPSKVFAVGWNDFELEREKELWRAIRKLSEEGAFILSSSQLLTRTHVETFREYGLKIEVKLPEVRPAHQMVLVFSERTPVVDVPVKEIGTLSR”, “not failed”; to “MKLSIVIVNYRVPYFLEQCLLSVRKSAQGIDTEVWVVDNNSGDGSVEYLQSRFPEVHFVANEENVGFSRANNQAIRLSKGQYVLLLNPDTLIGESTLRTVVDFMDSKPNAGGLGVKMLNGHGRFLPESKRGFPSPWVSFCKLSGLNRLFPHSSRFNRYHLSYLSRDEVHKVEVLSGAFMLMRREALDKVGLLDERFFMYGEDIDLSYRLILGGYDNYYYPTPILHYKGESSSVSDVKYLRSFYGAMGLFFDKYYRNRMNPLLHGLINVVIKARTALALMLRSLRKVPAAEKPAKIFYWHPSEGEAAISAYHDRSHILINTDEVTCDRLLLTMEKLADRKHTFHLTNDTTKRVISP”, “failed”.
As to “MKLTDRLLKIASLVSDGKKIADIGTDHGYIPVYLLKEGKVPFAVLADVNKGPLDNAHKEVIQNNLLDKVDLRLGSGIEILEIGEVEEVIIAGMGGILISELLEAKKEVAHNVEKLILQPMQAQEELRYYLLNNGYEILEEVLVREDFRIYEIIVAKYTGKNTIIEDEIYYEVGIKLLENKDSLFNDFIEKKIKTYSSIVNKLEGKNGEAIDKKRKESEVAIKKLENLIK”, the protein production result was “not failed”.
To “MKLTIPTWLTLLRIVMIPVLVVVFYLPYTWTNFASAGVFALAAITDWLDGWVARRYHQYSAFGAFLDPVADKLMVAVALFLIVQGHPTPWMAFWAAVIVGREIAVSALREWMAEIGQRAKVRVAAIGKIKTTAQMVALLCLLYSVTPGQMPTHEIWLGNLIFRAGYWTLAIAALLTLWSGFQYLQAAWPSLRADEKAAISNKPKKIESNS” belongs “failed”; to “MKLTLKNLSMAIMMSTIVMGSSAMAADSNEKIVIAHRGASGYLPEHTLPAKAMAYAQGADYLEQDLVMTKDDNLVVLHDHYLDRVTDVADRFPDRARKDGRYYAIDFTLDEIKSLKFTEGFDIENGKKVQTYPGRFPMGKSDFRVHTFEEEIEFVQGLNHSTGKNIGIYPEIKAPWFHHQEGKDIAAKTLEVLKKYGYTGKDDKVYLQCFDADELKRIKNELEPKMGMELNLVQLIAYTDWNETQQKQPDGSWVNYNYDWMFKPGAMKQVAEYADGIGPDYHMLIEETSQPGNIKLTGMVQDAQQNKLVVHPYTVRSDKLPEYTPDVNQLYDALYNKAGVNGLFTDFPDKAVKFLNKE”, “not failed”; to “MKLVKNLEIVESIFGDWDETIIWSCVQGIMGEVFVDSLDQPKSSLAKLGRKSSFGFLAGQPTLFLLEVCSGEDIILVPQHKGWSDLIESTYGQNAHSFKRYATKKDTLFERSRLEKFVTQLPNGFELRAIDEKVYNSCLEKEWSQDLVANYATYQYYKKQGIGYVVYYQGNIIAGASSYSTYKNGIEIEVDTHPDFRRRGLATIVAAQLILTCLDKGIYPSWDAHTRTSLNLSEKLGYEFSHEYIAYEID”, “failed”.
For “MKLVLEGVDSFETLRVVGTFNCIDPDYVGSKRVTKKADVYAFEVILMELITGRKANYETLSVDEQNLVMWLRPKIKISTFLNLVDGTIATDKETIKRIKKIAKLAEYCTSQEVESRPLRASRTKSGNEVTSED” the value was “failed”; for “MKLVNVTNSYKQLVNKQLENTDAYFVKVYSAGNTTAVYSEAAHHVEVLIMNKNRRIRPTEVKEILAKLLKRLPKEAYDPDEISIIELNHVTEVSVPLKVSLME”, “failed”.

The values are drawn from a protein production outcome set (Wang et al. 2014).
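Further: failed if final PepcDB status was selected cloned or expressed and not failed if soluble or beyond.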
